T1: GST-SPATIAL(L) (Mus musculus, UniProt Q7TSD4)
T1 construct: made in house
T1 sequence (Q7TSD4 with tags, fused parts or gaps isoform Q7TSD4-6 limits assumed): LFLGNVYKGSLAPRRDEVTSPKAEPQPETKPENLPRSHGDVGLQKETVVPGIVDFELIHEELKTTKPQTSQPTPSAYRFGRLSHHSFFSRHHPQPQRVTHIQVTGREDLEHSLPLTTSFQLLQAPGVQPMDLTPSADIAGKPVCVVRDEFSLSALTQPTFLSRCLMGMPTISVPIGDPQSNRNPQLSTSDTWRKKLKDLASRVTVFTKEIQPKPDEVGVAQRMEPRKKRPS

T2: HA-tagged SPATIAL (Mus musculus, UniProt Q7TSD4)
T2 construct: expressed in transfected cells; host or cells: 293T human kidney epithelial cells, calcium phosphate transfection
T2 sequence (Q7TSD4 with tags, fused parts or gaps isoform Q7TSD4-6 limits assumed): T1 sequence (Q7TSD4 with tags, fused parts or gaps isoform Q7TSD4-6 limits assumed)
T2 sequence (Q8C878 224-462 P243X partner limits assumed): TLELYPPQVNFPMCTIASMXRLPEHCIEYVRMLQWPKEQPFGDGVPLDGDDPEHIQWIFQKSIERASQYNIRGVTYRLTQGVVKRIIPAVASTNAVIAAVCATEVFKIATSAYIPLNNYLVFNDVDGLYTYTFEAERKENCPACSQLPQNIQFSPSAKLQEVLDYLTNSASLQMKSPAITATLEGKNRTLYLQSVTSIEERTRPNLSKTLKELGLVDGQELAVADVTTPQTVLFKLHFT

B1: Myc-346: Myc-tagged Uba3-clone 346, carboxyl terminus of Uba3, residues 203 to 441 of SEQ ID NO: 6 (protein, listed as Mus musculus)
chain: TLELYPPQVNFPMCTIASMPRLPEHCIEYVRMLQWPKEQPFGDGVPLDGDDPEHIQWIFQKSIERASQYNIRGVTYRLTQGVVKRIIPAVASTNAVIAAVCATEVFKIATSAYIPLNNYLVFNDVDGLYTYTFEAERKENCPACSQLPQNIQFSPSAKLQEVLDYLTNSASLQMKSPAITATLEGKNRTLYLQSVTSIEERTRPNLSKTLKELGLVDGQELAVADVTTPQTVLFKLHFT
modifications: not fully specified (N-terminus); also: Myc tag
B2: SPATIAL-EGFP: SPATIAL isoform fused to enhanced green fluorescent protein, expressed from pEGFPN1 (protein)
chain: T1 sequence (Q7TSD4 with tags, fused parts or gaps isoform Q7TSD4-6 limits assumed)
modifications: left off: large carriers
notes: SPATIAL isoform fused to enhanced green fluorescent protein, expressed from pEGFPN1

What was measured:
GST-SPATIAL(L) = molecular target: T1, GST-SPATIAL(L); assay: GST pulldown assay with GST-SPATIAL long isoform; assay type: binding; details: 35S-methionine labeled in vitro translated protein
Experimental: Eighteen cDNA clones identified in the yeast two-hybrid system were tested in an in vitro glutathione-S-transferase (GST) pulldown assay, as described in Ausubel et al., Current Protocols in Molecular Biology, Greene Publishing Associates, updated November 2003, Chapter 20, Analysis of Protein Interactions, Unit 20.2, Affinity Purification of Proteins Binding to GST Fusion Proteins.
Briefly, a GST-SPATIAL fusion construct was produced by cloning SPATIAL cDNA(s) into pGEx5X1 expression vector using standard molecular cloning techniques. GST or GST-SPATIAL fusion protein were expressed in 1-1000 ml bacterial cultures grown for 3-4 hours until OD600 reached 0.5. Then, plasmid expression was induced for 1.5-4 hours by the addition of ITPG to a final concentration of 0.11 mM. GST or GST-fusion proteins were purified using glutathione-Sepharose beads as described in Ausubel et al., Current Protocols in Molecular Biology, Greene Publishing Associates, updated November 2003, Chapter 20, Analysis of Protein Interactions, Unit 20.2, Affinity Purification of Proteins Binding to GST Fusion Proteins.
A coupled in vitro transcription and translation system (Promega) was used according to the manufacturer's instructions to produce radiolabeled protein from cDNAs to be tested. Radiolabeled proteins were mixed with either purified GST or GST-SPATIAL. Then, GST-containing protein complexes were purified by centrifugation from the reaction mixtures using glutathione-coated Sepharose beads. Bound proteins were eluted from the beads with SDS-PAGE loading buffer heated to 72-85° C., separated on polyacrylamide gels, and visualized by autoradiography. Specific interactions between GST-SPATIAL and in vitro translated proteins were indicated by the presence of a radiolabeled in vitro translated protein in the GST-SPATIAL-containing samples, but not in the GST-alone samples.
GST pulldown assays were performed as described in Example 9 using GST-SPATIAL(L) and GST-SPATIAL(S) and each of the Uba3 mutants described in this example.

HA-tagged SPATIAL = molecular target: T2, HA-tagged SPATIAL; assay: Co-immunoprecipitation of SPATIAL and Uba3 from transfected 293T cells; assay type: binding; details: only in samples that contained HA-tagged SPATIAL, FIG. 15
Experimental: Expression vectors encoding Myc-346 and HA-tagged SPATIAL were transfected alone or in combination into 293T cells by calcium phosphate precipitation (Mammalian Transfection Kit; Stratagene, La Jolla, Calif.) in accordance with manufacturer's instructions. Total protein lysates were prepared and immunoprecipitated with an anti-HA antibody, as described in Ausubel et al., Current Protocols in Molecular Biology, Greene Publishing Associates, updated November 2003, Chapter 20, Analysis of Protein Interactions, Unit 20.5, Detection of Protein-Protein Interaction by Coprecipitation. The immunoprecipitated proteins were separated by SDS-PAGE and transferred to a membrane for Western blotting using an anti-Myc antibody.

293T cells [1] = assay: Cell growth analysis: number of fluorescent (EGFP-positive) cells after transient transfection; assay type: cell-based, human
Experimental: Human embryonic kidney (293T) cells were maintained in DMEM supplemented with 10% heat-inactivated FBS, 2 mM glutamine, 100 U/ml penicillin, and 0.1 mg/ml streptomycin Cells were grown at 37° C. in a humidified atmosphere with 5% CO2.
The day before transfection, the cells were trypsinized (if needed), counted and plated in a 24-well plate at the density of 7.5×10^4 cells per well with 0.5 ml of their normal growth medium containing serum without antibiotics. On the day of transfection, cells were transfected according to the recommended protocol using 1.0 μg of each plasmid DNA and 3 μl of Lipofectamine 2000 in each well. The cells were kept at 37° C. in a CO2 incubator for 24 hours. […] The number of EGFP-positive cells was calculated using fluorescence-activated cytometry (FACS) analysis at various time points after transfection.
In representative experiments, approximately 0.5-1×10^6 293T cells were transiently transfected with approximately 1-10 μg of either SPATIAL EGFP expression vector or EGFP expression vector by calcium phosphate precipitation using the Mammalian Transfection Kit (Stratagene) in accordance with the manufacturer's instructions. The number of fluorescent EGFP- or SPATIAL-EGFP-transfected cells was monitored over time using flow cytometry or microscopic examination. […]

293T cells [2] = assay: Propidium iodide staining for apoptosis; assay type: cell-based, human; details: 24 to 72 hours after transfection
Description: Propidium iodide is a commonly known fluorescent compound, which intercalates into double-stranded nucleic acids. It is excluded by viable cells but can penetrate cell membranes of dying or dead cells. Thus, apoptotic cells may be identified by staining (and, in particular, nuclear staining) with propidium iodide.
Approximately 0.5-1.0×10^6 293T cells were transfected with SPATIAL-EGFP using either calcium phosphate (Mammalian Transfection Kit; Stratagene, La Jolla, Calif.) or Lipofectanine (Invitrogen, Rockville, Md.) in accordance with the manufacturers' instructions. Twenty-four (24) to 72 hours after transfection, the transfected cells were sorted. Approximately 1-5×10^5 sorted cells were resuspended in a solution contain 50 μg/ml propidium iodine, 0.1% sodium citrate and 0.1% Triton X-100 and incubated overnight to lyse the cells and stain the nuclei. Then, the sample was analyzed by flow cytometry to identify sub-diploid amounts of DNA which indicates cell death via apoptosis.

caspase = assay: Caspase activation flow cytometry assay (PhiPhi Lux); assay type: cell-based; details: SPATIAL-EGFP transfected cells
Description: Caspase activation plays a central role in the execution of apoptosis (e.g., Budihardjo et al., Ann. Rev. Cell. Dev. Biol., 15:269-90, 1999).

Wehi7.2 cells = assay: Bcl-2 expression assay, SPATIAL-EGFP transfected thymocyte cell line; assay type: cell-based, mouse; details: transient transfection by electroporation
Experimental: (§1) The mouse thymocyte cell line Wehi 7.2 and its variant Wbcl-2, which over expresses bcl-2, were maintained in DMEM supplemented with 10% heat-inactivated FBS, 2 mM glutamine, 100 U/ml penicillin, and 0.1 mg/ml streptomycin. Cells were grown at 37° C. in a humidified atmosphere with 5% CO2.
(§2) Transient transfections were performed using either lipids (Lipofectamine 2000 or FreeStyle 293 Expression System, each supplied by Invitrogen, Rockville, Md.) or calcium phosphate (Mammalian Transfection Kit; Stratagene, La Jolla, Calif.) or electroporation. Manufacturer instructions were followed for lipid and calcium phosphate transfections. For electroporation, the following procedure was used: Before transfection, Wehi cell and Wbcl-2 cells were counted and suspended in fresh complete DMEM without antibiotics at 5×10^5 cells/ml in a 15 cm dish. On the day of transfection, the cells were washed with PBS twice and were suspended in serum free DMEM at 6.25×10^6 cells/mL Aliquots of 800 μl cell suspension were transferred to a 4 mm electroporation cuvette and 10 μg of plasmid DNA solution was added. After 10 minutes incubation on ice, the cells were electroporated under the condition of 310 V, 725 ohms resistance, and 1050 μF capacitance. The transfected cells were incubated on ice for 10 minutes and suspended in complete DMEM in 10 cm dishes at the density of 7.5×10^4 viable cells/ml. […]

Hb12 cells = assay: Bcl-2 expression assay, SPATIAL-EGFP transfected Bcl-2 expressing thymocyte cell line; assay type: cell-based, mouse; details: transient transfection by electroporation
Experimental: as §1, §2

293T cells [3] = assay: DiI cell division analysis by FACS; assay type: cell-based, human; details: 4-day period, FIG. 7
Experimental: 293T cells were transfected with expression plasmid for EGFP alone (pEGFPN1; Clontech) or EGFP-SPATIAL(L). Twenty four (24) hours later, transfected cells were reacted with 3H-Indolium, 2-[3(1,3-dihydro-3,3-dimethyl-1-octacdecyl-2H-indol-2-ylidene)-propenyl]-3,3-dimethyl-octacdecyl-, perchlorate (DiI; Molecular Probes, Eugene, Oreg.) a fluorescent compound that […] binds to lipids. EGFP-positive and/or EGFP-negative cells were analyzed by FACS on the day after transfection and 1 hour after DiI labeling (Day 0) and four days after transfection (Day 4) as indicated.
To directly examine division of SPATIAL EGFP transfected cells, the lipophilic dye, 3H-Indolium, 2-[3-(1,3-dihydro-3,3-dimethyl-1-octacdecyl-2H-indol-2-ylidene) 1-propenyl]-3,3-dimethyl-1-octacdecyl-, perchlorate (DiI). DiI becomes highly fluorescent when it interacts with cell membranes and is equally portioned to each daughter cell during cell division. This property has been used to monitor cell divisions based on the reduction of dye in successive generations, which can be monitored using FACS analysis (Huang et al., Blood, 94(8):2595-2604, 1999). DiI was chosen so that the generational analysis could be done on EGFP-positive cells.

| Molecule | interaction with GST-SPATIAL(L) (GST-SPATIAL(L)) | co-immunoprecipitation by anti-HA antibody (HA-tagged SPATIAL) | increase in the number of fluorescent cells (293T cells [1]; four day period post-transfection, FIG. 6) | increase in the number of fluorescent transfected cells (293T cells [1]; two-week period post-transfection, G418 selection) | apoptosis based on nuclear morphology of propidium iodide stained cells (293T cells [2]) | caspase activation (caspase) | cell growth of transfected cells (Wehi7.2 cells) | cell growth of transfected cells (Hb12 cells) | cell division of EGFP-positive cells (293T cells [3]) |
| --- | --- | --- | --- | --- | --- | --- | --- | --- | --- |
| B1 | specifically interacted | reproducibly immunoprecipitated |  |  |  |  |  |  |  |
| B2 |  |  | no increase | 2-3 fold | no evidence of apoptosis | No caspase activation was detected | profound suppression of cell growth | profound suppression of cell growth | effectively blocked the majority of transfected cells from dividing |
